According to US20240132578A1:

What was measured:
Test in all cases: cell-based or functional assay
[1] = biological target: HIV-1 Env of isolate MGRM-G-013 (subtype G), on pseudovirus (HIV-1)
[2] = biological target: HIV-1 Env of isolate APV 13 (subtype B) (HIV-1)
[3] = biological target: HIV-1 Env of isolate MGRM-G-004 (subtype G), on pseudovirus (HIV-1)
[4] = biological target: HIV-1 Env of isolate 6535.3 (subtype B) (HIV-1)
[5] = biological target: aMLV envelope, on pseudovirus (negative control)
[6] = biological target: HIV-1 Env of isolate MGRM-G-017 (subtype G), on pseudovirus (HIV-1)
[7] = biological target: HIV-1 Env of isolate MGRM-G-024 (subtype G), on pseudovirus (HIV-1)
[8] = biological target: HIV-1 Env of isolate MGRM-G-009 (subtype G), on pseudovirus (HIV-1)
[9] = biological target: HIV-1 Env of isolate MGRM-G-019 (subtype G), on pseudovirus (HIV-1)
[10] = biological target: HIV-1 Env of isolate 93TH305 (subtype B) (HIV-1)
[11] = biological target: HIV-1 Env of isolate MGRM-G-006 (subtype G), on pseudovirus (HIV-1)
[12] = biological target: HIV-1 Env of isolate MGRM-G-014 (subtype G), on pseudovirus (HIV-1)
[13] = biological target: HIV-1 Env of isolate MGRM-G-001 (subtype G), on pseudovirus (HIV-1)
[14] = biological target: HIV-1 Env of isolate APV 6 (subtype B) (HIV-1)
[15] = biological target: HIV-1 JR-CSF Env D474A (HIV-1 JR-CSF) (UniProt P20871)
[16] = biological target: HIV-1 Env of isolate MGRM-G-016 (subtype G), on pseudovirus (HIV-1)
[17] = biological target: HIV-1 Env of isolate MGRM-G-011 (subtype G), on pseudovirus (HIV-1)
[18] = biological target: HIV-1 Env of isolate MGRM-G-015 (subtype G), on pseudovirus (HIV-1)
[19] = biological target: HIV-1 Env of isolate APV_17 (subtype B) (HIV-1)
[20] = biological target: HIV-1 Env of isolate MGRM-G-027 (subtype G), on pseudovirus (HIV-1)
[21] = biological target: HIV-1 Env of isolate MGRM-G-028 (subtype G), on pseudovirus (HIV-1)
[22] = biological target: HIV-1 Env of isolate 92BR020 (subtype B) (HIV-1)
[23] = biological target: HIV-1 Env of isolate MGRM-G-025 (subtype G), on pseudovirus (HIV-1)
[24] = biological target: HIV-1 JR-CSF Env D477A (HIV-1 JR-CSF) (UniProt P20871)
[25] = biological target: HIV-1 Env of isolate MGRM-C-006 (subtype C) (HIV-1)
[26] = biological target: HIV-1 Env of isolate MGRM-C-023 (subtype C) (HIV-1)
[27] = biological target: HIV-1 Env of isolate MGRM-C-027 (subtype C) (HIV-1)
[28] = biological target: HIV-1 Env of isolate MGRM-C-005 (subtype C) (HIV-1)
[29] = biological target: HIV-1 Env of isolate 93MW959 (subtype C) (HIV-1)
[30] = biological target: HIV-1 Env of isolate MGRM-C-012 (subtype C) (HIV-1)
[31] = biological target: HIV-1 Env of isolate MGRM-C-026 (subtype C) (HIV-1)
[32] = biological target: HIV-1 Env of isolate MGRM-C-028 (subtype C) (HIV-1)
[33] = biological target: HIV-1 Env of isolate MGRM-C-010 (subtype C) (HIV-1)
[34] = biological target: HIV-1 Env of isolate MGRM-C-019 (subtype C) (HIV-1)
[35] = biological target: HIV-1 Env of isolate MGRM-C-025 (subtype C) (HIV-1)
[36] = biological target: HIV-1 Env of isolate MGRM-C-024 (subtype C) (HIV-1)
[37] = biological target: HIV-1 Env of isolate 97ZA012 (subtype C) (HIV-1)
[38] = biological target: HIV-1 Env of isolate MGRM-C-020 (subtype C) (HIV-1)
[39] = biological target: HIV-1 Env of isolate MGRM-C-002 (subtype C) (HIV-1)
[40] = biological target: HIV-1 Env of isolate MGRM-C-004 (subtype C) (HIV-1)
[41] = biological target: HIV-1 Env of isolate MGRM-C-001 (subtype C) (HIV-1)
[42] = biological target: HIV-1 Env of isolate MGRM-C-007 (subtype C) (HIV-1)
[43] = biological target: HIV-1 Env of isolate 98IN022 (subtype C) (HIV-1)
[44] = biological target: HIV-1 Env of isolate MGRM-C-013 (subtype C) (HIV-1)
[45] = biological target: HIV-1 Env of isolate MGRM-C-008 (subtype C) (HIV-1)
[46] = biological target: HIV-1 Env of isolate MGRM-C-015 (subtype C) (HIV-1)
[47] = biological target: HIV-1 Env of isolate MGRM-C-022 (subtype C) (HIV-1)
[48] = biological target: HIV-1 JR-CSF Env R476A (HIV-1 JR-CSF) (UniProt P20871)
[49] = biological target: HIV-1 Env of isolate MGRM-C-017 (subtype C) (HIV-1)
[50] = biological target: HIV-1 Env of isolate MGRM-C-014 (subtype C) (HIV-1)
[51] = biological target: HIV-1 Env of isolate MGRM-C-009 (subtype C) (HIV-1)

B1: PGT-130 (antibody, V domains shown)
VH: QVQLQESGPGLVKPAETLSLTCSVSGESINTGHYYWGWVRQVPGKGLEWIGHIHYTTAVLHNPSLKSRLTIKIYTLRNQITLRLSNVTAADTAVYHCVRSGGDILYYYEWQKPHWFSPWGPGIHVTVSS
VL: QSALTQPPSASGSLGQSVTISCNGTSSDIGGWNFVSWYQQFPGRAPRLIIFEVNKRPSGVPGRFSGSKSGNSASLTVSGLQSDDEGQYFCSSLFGRWDVVFGGGTKLTVL
- IC50 (µg/mL), neutralization of pseudovirus [1]: > 50 µg/mL
- IC50 (µg/mL), pseudovirus neutralization [2]: 0.052 µg/mL
- IC50 (µg/mL), neutralization of pseudovirus [3]: > 50 µg/mL
- IC50 (µg/mL), pseudovirus neutralization [4]: 0.031 µg/mL
- IC50 (µg/mL), neutralization of pseudovirus [5]: > 50 µg/mL
- IC50 (µg/mL), neutralization of pseudovirus [6]: > 50 µg/mL
- IC50 (µg/mL), neutralization of pseudovirus [7]: 5.84 µg/mL
- IC50 (µg/mL), neutralization of pseudovirus [8]: > 50 µg/mL
- IC50 (µg/mL), neutralization of pseudovirus [9]: 27.9 µg/mL
- IC50 (µg/mL), pseudovirus neutralization [10]: 0.021 µg/mL
- IC50 (µg/mL), neutralization of pseudovirus [11]: > 50 µg/mL
- IC50 (µg/mL), neutralization of pseudovirus [12]: 2.23 µg/mL
- IC50 (µg/mL), neutralization of pseudovirus [13]: 0.0198 µg/mL
- IC50 (µg/mL), pseudovirus neutralization [14]: > 50 µg/mL
- Fold IC50 increase relative to wild-type [15]: 2 fold
- IC50 (µg/mL), neutralization of pseudovirus [16]: > 50 µg/mL
- IC50 (µg/mL), neutralization of pseudovirus [17]: > 50 µg/mL
- IC50 (µg/mL), neutralization of pseudovirus [18]: > 50 µg/mL
- IC50 (µg/mL), pseudovirus neutralization [19]: 10.7 µg/mL
- IC50 (µg/mL), neutralization of pseudovirus [20]: 4.14 µg/mL
- IC50 (µg/mL), neutralization of pseudovirus [21]: 0.074 µg/mL
- IC50 (µg/mL), pseudovirus neutralization [22]: 1.4 µg/mL
- IC50 (µg/mL), neutralization of pseudovirus [23]: 8.45 µg/mL

B2: PGT-123 (antibody, V domains shown)
VH: QLHLQESGPGLVKPPETLSLTCSVSGASINDAYWSWIRQSPGKRPEWVGYVHHSGDTNYNPSLKRRVTFSLDTAKNEVSLKLVDLTAADSATYFCARALHGKRIYGIVALGELFTYFYMDVWGKGTAVTVSS
VL: SSMSVSPGETAKISCGKESIGSRAVQWYQQKPGQPPSLIIYNNQDRPAGVPERFSASPDFRPGTTATLTITNVDAEDEADYYCHIYDARGGTNWVFDRGTTLTVL
- IC50 (µg/mL), neutralization of pseudovirus [1]: 3.97 µg/mL
- Fold IC50 increase relative to wild-type [24]: 2.3 fold
- IC50 (µg/mL), pseudovirus neutralization [25]: 0.021 µg/mL
- IC50 (µg/mL), neutralization of pseudovirus [3]: 0.181 µg/mL
- IC50 (µg/mL), neutralization of pseudovirus [5]: > 50 µg/mL
- IC50 (µg/mL), neutralization of pseudovirus [6]: 0.026 µg/mL
- IC50 (µg/mL), neutralization of pseudovirus [7]: 0.032 µg/mL
- IC50 (µg/mL), pseudovirus neutralization [26]: 0.011 µg/mL
- IC50 (µg/mL), pseudovirus neutralization [27]: 0.02 µg/mL
- IC50 (µg/mL), neutralization of pseudovirus [8]: 33.5 µg/mL
- IC50 (µg/mL), pseudovirus neutralization [28]: 0.012 µg/mL
- IC50 (µg/mL), neutralization of pseudovirus [9]: 0.008 µg/mL
- IC50 (µg/mL), pseudovirus neutralization [29]: 0.011 µg/mL
- IC50 (µg/mL), neutralization of pseudovirus [11]: > 50 µg/mL
- IC50 (µg/mL), pseudovirus neutralization [30]: 0.605 µg/mL
- IC50 (µg/mL), pseudovirus neutralization [31]: 0.001 µg/mL
- IC50 (µg/mL), neutralization of pseudovirus [12]: 0.005 µg/mL
- IC50 (µg/mL), pseudovirus neutralization [32]: 0.402 µg/mL
- IC50 (µg/mL), pseudovirus neutralization [33]: > 50 µg/mL
- IC50 (µg/mL), neutralization of pseudovirus [13]: 0.009 µg/mL
- IC50 (µg/mL), pseudovirus neutralization [34]: > 50 µg/mL
- IC50 (µg/mL), pseudovirus neutralization [35]: 13.3 µg/mL
- IC50 (µg/mL), pseudovirus neutralization [36]: 0.195 µg/mL
- IC50 (µg/mL), pseudovirus neutralization [37]: 0.002 µg/mL
- IC50 (µg/mL), neutralization of pseudovirus [16]: > 50 µg/mL
- IC50 (µg/mL), pseudovirus neutralization [38]: > 50 µg/mL
- IC50 (µg/mL), neutralization of pseudovirus [17]: 14.9 µg/mL
- IC50 (µg/mL), pseudovirus neutralization [39]: 0.01 µg/mL
- IC50 (µg/mL), pseudovirus neutralization [40]: 0.009 µg/mL
- IC50 (µg/mL), pseudovirus neutralization [41]: 42.4 µg/mL
- IC50 (µg/mL), pseudovirus neutralization [42]: 0.547 µg/mL
- IC50 (µg/mL), neutralization of pseudovirus [18]: > 50 µg/mL
- IC50 (µg/mL), pseudovirus neutralization [43]: 0.011 µg/mL
- IC50 (µg/mL), pseudovirus neutralization [44]: 14.9 µg/mL
- IC50 (µg/mL), neutralization of pseudovirus [20]: 0.182 µg/mL
- IC50 (µg/mL), pseudovirus neutralization [45]: 0.011 µg/mL
- IC50 (µg/mL), pseudovirus neutralization [46]: 13.1 µg/mL
- IC50 (µg/mL), pseudovirus neutralization [47]: 0.01 µg/mL
- Fold IC50 increase relative to wild-type [48]: 2 fold
- IC50 (µg/mL), neutralization of pseudovirus [21]: 0.008 µg/mL
- IC50 (µg/mL), pseudovirus neutralization [49]: 0.01 µg/mL
- IC50 (µg/mL), pseudovirus neutralization [50]: 1 µg/mL
- IC50 (µg/mL), neutralization of pseudovirus [23]: 0.046 µg/mL
- IC50 (µg/mL), pseudovirus neutralization [51]: > 50 µg/mL
